Test results published in article PMC4894640.

Target: F-actin (polymerized non-muscle actin) (UniProt P60709)
Experiment: co-sedimentation; as the F-actin co-sedimentation, with in vitro synthesized HA-RAB-10(Q68L) (control: HA-only) added to the mixture

increase of co-sedimentation with HA-RAB-10(Q68L) against without: 67%
Substance: GST-EHBP-1(260-901aa) (domain or fragment)
